Patent US20250339501A1, “COMPOSITIONS AND METHODS FOR TREATING METABOLIC DISEASE” (The Regents of the University of California, priority 2021, published 2025)
Entries after “also recorded” stand apart in the source; their conditions may differ.

Key:
[1] = test system: AMPK signaling; assay: RNA sequencing analysis of HepG2 cells; type: cell-based, human
[2] = test system: HFD-fed mice; assay: rDj1 or tDj1 intravenous every other day for 14 days in HFD-fed mice; type: in vivo, mouse
Method: (§1) C57BL/10cSn-Dmd^mdx/J (001801, mdx) and C57BL/10ScSnJ (000476, WT) mice were ordered directly from The Jackson Laboratory. Different ages of mdx and WT mice were obtained. Animals were weaned 21 days after birth and had free access to food and water and were housed on 12 h light-dark cycle. C57BL/6J males were introduced to a normal diet (NC, Research Diets D15100601) or high-fat diet (HFD, Research Diets D12331), and maintained on a diet for the indicated time. The HFD diet derives 58% of its kilocalories (kcal) from fat (soybean and coconut oil), 25.5% from carbohydrates (sucrose and maltodextrin), and 16.4% from protein (casein). NASH model mice were fed for up to 28 weeks with the NASH diet (Envigo, TD.120528) and 42% fructose (Sigma, F0127) in the water (1,2). The NASH diet is composed of 405.36 g/Kg sucrose and 12.5 g/Kg cholesterol. Recombinant mouse Dj1 protein (Novus, NBP2-59523) or truncated mouse Dj1 (tDj1, GenScript) protein was intravenously injected every day for 5 days or every other day for 2 weeks. Skeletal muscle-specific Park7 knockout mice were generated by crossing Park7 flox mice with Myl1-cre mice (JAX, #024713). Mice were raised in microisolator cages with a 12 h: 12 h light: dark cycle. All procedures were performed in accordance with the Guide for Care and Use of Laboratory Animals of the National Institutes of Health, and were approved by the Animal Subjects Committee of the University of California, Los Angeles.
(§2) Cryosections (10-μm thick transverse sections of frozen muscle cut in a cryostat (Leica) at −20° C.) were subjected to hematoxylin & eosin (H&E) staining (10, 54). Liver tissues were fixed in phosphate-buffered 10% formalin and embedded in paraffin wax. Sections were cut and stained with H&E.
Mouse serum Dj1 and CK were measured by mouse Park7/DJ-1 DuoSet ELISA (DY8136, R&D systems) and mouse CKMB/Creatine Kinase MB ELISA Kit (LS-F5745, LSBio) respectively. Mouse Serum AST and ALT were measured by AST activity assay kit (Sigma, MAK055) and ALT activity assay kit (Sigma, MAK052) respectively.
(§3) Plasma and liver NEFA, Cholesterol, and Triglyceride were analyzed by their respective kits (FUJIFILM Wako Diagnostics)
(§4) About 80 mg of liver samples were homogenized and sonicated in PBS (pH 7.4) for lipid extraction. An internal standard mixture (ISTD) and CHCl3:methanol (2:1) were added to the samples before being vortexed, mixed, sonicated, and centrifuged. The supernatant containing the lipid was removed and dried, the lipids were resuspended in ethanol and then sonicated.
Dj1 is a highly conserved protein that is ubiquitously expressed in most mammalian tissues. It belongs to the Dj1/ThiJ/PfpI family chaperones, and its expression is induced by oxidative stress (20,21). To determine whether the PfpI domain of Dj1 exerts a similar role as the full-length Dj1 protein (rDj1) in liver cells, truncated Dj1 (tDj1) comprising of only the PfpI domain was purified (FIG. 5O). HFD-fed mice were intravenous injected with rDj1 or tDj1 every other day for 14 days.

[3] = test system: HepG2 cells; assay: Fatty acid oxidation and lipid content in HepG2 cells; type: cell-based, human
Method: Mouse myoblast cells (C2C12) were maintained in high glucose DMEM/high, 10% fetal bovine serum with penicillin/streptomycin. pRK5-Dj1-HA plasmid was purchased from Addgene (#29396). Seeded cells were cultured in 6-well plates for 24 hours prior to transfection. Transfections were performed using Lipofectamine 2000 and PLUS reagent according to manufacturer instructions (Invitrogen, Carlsbad, CA). Human HepG2 cells were cultured in DMEM/low media containing 10% fetal bovine serum with penicillin/streptomycin. Mouse AML12 cells were maintained in DMEM/F12, ITS supplement (Gibco, USA), 40 ng/ml dexamethasone, and 10% fetal bovine serum with penicillin/streptomycin. For in vitro experiments, HepG2 cells were treated with or without recombinant human Dj1 protein (Novus, NBC1-18334) in serum-free media containing 25 mM glucose, 200 μM palmitic acid, and 0.25% bovine serum albumin for an indicated time.
(§5) AMPK signaling is vital for lipid metabolism in the liver (19). […] These findings indicate that Dj1 could enhance lipid metabolism and ameliorate HFD-induced hepatic steatosis. rDj1 was tail-vein injected into mice fed with a chow diet (NC) or high-fat diet (HFD) daily for 5 days. […] Although body weights and fasting blood glucose levels of HFD-fed mice were unchanged during the rDj1 administration, rDj1 indeed enhanced glucose homeostasis and insulin action, as evidenced by improving glucose tolerance tests and insulin tolerance tests, respectively (FIGS. 4K-4M, 4U-4Z).

[4] = test system: HFD-fed C57BL/6J mice; assay: rDj1 tail-vein injection daily for 5 days in HFD-fed mice; type: in vivo, mouse
Method: as §1, §2, §3, §4, §5

[5] = test system: NC-fed C57BL/6J mice; assay: rDj1 tail-vein injection daily for 5 days in NC-fed mice; type: in vivo, mouse; conditions: 0.15 mg/kg/day IV for 5 days
Method: as §1, with “All procedures were performed in accordance with the Guide for Care and Use of Laboratory Animals of the National Institutes of Health, and were approved by the Animal Subjects Committee of the University of California, Los Angeles.” left out
Plasma and liver NEFA, Cholesterol, and Triglyceride were analyzed by their respective kits (FUJIFILM Wako Diagnostics) […]

[6] = test system: JNK; assay: TNFα-induced JNK phosphorylation in HepG2 cells; type: cell-based; conditions: human HepG2 liver cells
From the text: As described above, Dj1 administration stimulates AMPK phosphorylation in the liver cells. However, elevated AMPK phosphorylation in vivo was not observed (data not shown). Numerous studies have reported that the c-Jun N terminal kinase (JNK) is critical to the development of steatosis and chronic liver injury in NAFLD (22-25). […] However, not all MAPK pathways were activated. For example, phosphorylation of p42 was not altered by tDj1 treatment (FIG. 6O). Both rDj1 and tDj1 suppressed TNFα and Anisomycin-induced JNK (p54 and p46) phosphorylation in human HepG2 and mouse AML12 liver cells, respectively (FIGS. 6C-6D).

[7] = test system: HFD-fed mice; assay: Indirect calorimetry in HFD-fed mice; type: in vivo, mouse
Method: Elevated AMPK signaling and reduced lipid content in the liver led to the hypothesis that rDj1 might activate the whole-body energy metabolism of mouse. Therefore, the metabolic rate was determined in HFD-fed mice by indirect calorimetry.

B1: rDj1: full-length recombinant Dj1 protein; mouse protein (Novus, NBP2-59523) injected in mice, human protein used in HepG2 cells (protein, UniProt Q99LX0 1-189, looked up)
chain: MASKRALVILAKGAEEMETVIPVDVMRRAGIKVTVAGLAGKDPVQCSRDVMICPDTSLEDAKTQGPYDVVVLPGGNLGAQNLSESPMVKEILKEQESRKGLIAAICAGPTALLAHEVGFGCKVTTHPLAKDKMMNGSHYSYSESRVEKDGLILTSRGPGTSFEFALAIVEALVGKDMANQVKAPLVLKD
modifications: full-length
notes: full-length recombinant Dj1 protein; mouse protein (Novus, NBP2-59523) injected in mice, human protein used in HepG2 cells
- AMPK signaling (RNA sequencing analysis) [1]: upregulated
- level of TG in the liver [2]: significantly reduced
- liver histology, lipid accumulation [2]: less lipid accumulation
- plasma ALT levels [2]: reducing
- plasma AST levels [2]: reducing
- Oil Red O staining (neutral lipids) [3]: reduced
- fatty acid oxidation [3]: significantly promoted
- triacylglycerol (TG) levels [3]: reduced
- TGs levels in the liver ([4]; 0.15 mg/kg/day IV for 5 days): decreasing
- glucose tolerance tests ([4]; 0.15 mg/kg/day IV for 5 days): improving
- insulin tolerance tests ([4]; 0.15 mg/kg/day IV for 5 days): improving
- liver H&E staining, lipids ([4]; daily for 5 days): fewer lipids
- body weights ([4]; during rDj1 administration): unchanged
- fasting blood glucose levels ([4]; during rDj1 administration): unchanged
- plasma cholesterol levels [5]: significantly reduced
- plasma non-esterified fatty acids (NEFA) [5]: significantly reduced
- TNFα-induced JNK (p54 and p46) phosphorylation [6]: suppressed; also recorded: inhibits
- energy expenditure (EE) [7]: elevated
- oxygen consumption (VO2) [7]: elevated
- respiratory exchange ratio (RER) [7]: reducing
